Experiment in all cases: activation reporter or marker
Test [1] has as its target IGRP 305-324 peptide on HLA-DRB1*04:01 (human).
For test [2], the target named is IGRP 241-260 peptide on HLA-DRB1*04:01 (human).
Test [3] addresses T1, ZNT8 1-20 peptide on HLA-DRB1*04:01 (human).
T1 peptide: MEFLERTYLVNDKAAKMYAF

Test [4] addresses T2, GAD65 105-124 peptide on HLA-DRB1*04:01 (human).
T2 peptide: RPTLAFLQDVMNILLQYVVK

For test [5], the target named is T3, ZNT8 266-285 peptide on HLA-DRB1*04:01 (human).
T3 peptide: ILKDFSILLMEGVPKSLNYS

Test [6] addresses T4, GAD65 113-132 peptide on HLA-DRB1*04:01 (human).
T4 peptide: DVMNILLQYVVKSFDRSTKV

The target of test [7] is T5, GAD65 353-372 peptide on HLA-DRB1*04:01 (human).
T5 peptide: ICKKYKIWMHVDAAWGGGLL

In test [8] the target is GAD65 265-284 peptide on HLA-DRB1*04:01 (human).
In test [9] the target is T6, GAD65 553-572 peptide on HLA-DRB1*04:01 (human).
T6 peptide: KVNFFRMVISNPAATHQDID

The results in this text go back to paper PMC8663791 (2021).

B1: Clone_5 (TCR)
alpha TRAV3 TRAJ13 CDR3: CAVRDSFSGGYQKVTF
beta TRBV12-4 TRBJ2-7 CDR3: CASSPLAGAWSYEQYF
B1: the binding result in test [1] is given as “recognises”.

B2: Clone_855 (TCR)
alpha TRAV8-2 TRAJ27 CDR3: CVVSVGTNAGKSTF
beta TRBV11-3 TRBJ2-2 CDR3: CASSFSGELFF
For B2, in test [2], the binding result is recorded as “recognises”.

B3: Clone_896 (TCR)
alpha TRAV12-2 TRAJ15 CDR3: CAVNPNQAGTALIF
beta TRBV6-6 TRBJ1-5 CDR3: CASAPQEAQPQHF
For B3, the binding result in [2] is reported as “recognises”.

B4: Clone_1662 (TCR)
alpha TRAV13-1 TRAJ41 CDR3: CAASGANSGYALNF
beta TRBV30 TRBJ2-5 CDR3: CAWSAQGETQYF
On to B4, for which the binding result in test [3] is on record as “recognises”.

B5: Clone_2073 (TCR)
alpha TRAV8-6 TRAJ57 CDR3: CAVKLQGGSEKLVF
beta TRBV2 TRBJ1-5 CDR3: CASKYNRGEQPQHF
In the case of B5, in [4], the binding result is recorded as “recognises”.

B6: Clone_295 (TCR)
alpha TRAV5 TRAJ22 CDR3: CAESTSGSARQLTF
beta TRBV30 TRBJ2-1 CDR3: CAWMGGYNEQFF
Take B6: the binding result in [5] is “recognises”.

B7: Clone_2356 (TCR)
alpha TRAV25 TRAJ36 CDR3: CAGQTGANNLFF
beta TRBV4-3 TRBJ1-5 CDR3: CASSQEVGTVPNQPQHF
With B7, the binding result in test [1] is “recognises”.

B8: Clone_839 (TCR)
alpha TRAV17 TRAJ6 CDR3: CATDEGGSYIPTF
beta TRBV11-3 TRBJ2-2 CDR3: CASSFSGELFF
As to B8, the binding result in test [6] was “recognises”.

B9: Clone_904 (TCR)
alpha TRAV9-2 TRAJ52 CDR3: CALSDYSGTSYGKLTF
beta TRBV11-2 TRBJ2-1 CDR3: CASSLIPYNEQFF
As for B9, the binding result in [6] was “recognises”.

B10: Clone_2312 (TCR)
alpha TRAV14DV4 TRAJ15 CDR3: CAMREMNQAGTALIF
beta TRBV6-2 TRBJ1-5 CDR3: CASTKGGTHQPQHF
Consider B10, for which, in [7], the binding result is reported as “recognises”.

B11: Clone_478 (TCR)
alpha TRAV3 TRAJ28 CDR3: CAVRDMRGAGSYQLTF
beta TRBV6-5 TRBJ2-7 CDR3: CASSLGTGTGVYEQYF
As to B11, the binding result in test [8] is on record as “recognises”.

B12: Clone_578 (TCR)
alpha TRAV8-3 TRAJ32 CDR3: CAVGAGYGGATNKLIF
beta TRBV12-3 TRBJ2-7 CDR3: CASSFRGGGNPYEQYF
As to B12, the binding result in [9] is recorded as “recognises”.

B13: Clone_271 (TCR)
alpha TRAV20 TRAJ39 CDR3: CAVQAGNAGNMLTF
beta TRBV7-6 TRBJ2-2 CDR3: CASSLGVTGELFF
With B13, in test [6], the binding result was “recognises”.

B14: Clone_667 (TCR)
alpha TRAV5 TRAJ7 CDR3: CAERLYGNNRLAF
beta TRBV6-1 TRBJ2-7 CDR3: CASTLLWGGDSYEQYF
As for B14, the binding result in test [6] is “recognises”.

B15: Clone_2062 (TCR)
alpha TRAV20 TRAJ39 CDR3: CAVQAGNAGNMLTF
beta TRBV7-6 TRBJ2-2 CDR3: CASASGVVGELFF
As for B15, in test [6], the binding result is listed as “recognises”.

B16: Clone_262 (TCR)
alpha TRAV12-3 TRAJ29 CDR3: CAMEGGRYNTPLVF
beta TRBV5-6 TRBJ1-1 CDR3: CASSVNRGHNTEAFF
As to B16, the binding result in test [6] is “recognises”.

B17: Clone_300 (TCR)
alpha TRAV17 TRAJ22 CDR3: CATDSSSGSARQLTF
beta TRBV5-1 TRBJ2-7 CDR3: CASSLVGGRVDWREQYF
With B17, the binding result in test [1] was “recognises”.

B18: Clone_2353 (TCR)
alpha TRAV26-2 TRAJ48 CDR3: CILRDTISNFGNEKLTF
beta TRBV7-9 TRBJ1-2 CDR3: CASSFGSSYYGYTF
Regarding B18, the binding result in test [1] is given as “recognises”.

B19: Clone_640 (TCR)
alpha TRAV41 TRAJ49 CDR3: CAAAGNQFYF
beta TRBV12-4 TRBJ2-1 CDR3: CASSFTYNEQFF
Take B19: the binding result in test [6] is given as “recognises”.

B20: Clone_1826 (TCR)
alpha TRAV13-2 TRAJ20 CDR3: CAENRSDYKLSF
beta TRBV28 TRBJ2-5 CDR3: CASSSQGQGKETQYF
Turning to B20, the binding result in test [3] was “recognises”.
